Target: mouse FGFR4/β-klotho complex co-expressed in rat L6 myoblast cells (mouse, UniProt Q03142 17-799; Q99N32 1-1043)
Experiment: cell-based or functional assay

mouse FGFR4/β-klotho complex co-expressed in rat L6 myoblast cells, sequence (Q03142 17-799, chain 1 of 2): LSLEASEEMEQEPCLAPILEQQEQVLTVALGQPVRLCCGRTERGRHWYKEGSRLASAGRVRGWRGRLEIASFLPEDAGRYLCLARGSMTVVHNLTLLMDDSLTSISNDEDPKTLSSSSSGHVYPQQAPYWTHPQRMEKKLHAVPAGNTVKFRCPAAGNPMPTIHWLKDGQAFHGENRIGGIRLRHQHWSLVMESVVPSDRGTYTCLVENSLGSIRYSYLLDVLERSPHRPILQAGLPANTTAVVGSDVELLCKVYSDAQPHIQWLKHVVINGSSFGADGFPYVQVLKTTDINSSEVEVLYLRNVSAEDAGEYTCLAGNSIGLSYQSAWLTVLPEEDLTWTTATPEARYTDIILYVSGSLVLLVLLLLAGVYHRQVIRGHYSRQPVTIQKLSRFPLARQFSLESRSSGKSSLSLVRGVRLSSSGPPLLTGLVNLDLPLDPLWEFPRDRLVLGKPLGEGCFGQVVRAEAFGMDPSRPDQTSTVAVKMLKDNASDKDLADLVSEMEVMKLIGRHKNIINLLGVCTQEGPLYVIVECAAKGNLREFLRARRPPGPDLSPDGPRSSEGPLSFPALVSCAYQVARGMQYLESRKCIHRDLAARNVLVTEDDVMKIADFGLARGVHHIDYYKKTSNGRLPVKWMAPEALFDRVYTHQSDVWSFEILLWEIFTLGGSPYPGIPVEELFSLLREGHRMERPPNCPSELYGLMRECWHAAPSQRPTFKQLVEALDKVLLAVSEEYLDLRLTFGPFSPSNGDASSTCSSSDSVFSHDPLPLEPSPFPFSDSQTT
mouse FGFR4/β-klotho complex co-expressed in rat L6 myoblast cells, sequence (Q99N32 whole entry, chain 2 of 2): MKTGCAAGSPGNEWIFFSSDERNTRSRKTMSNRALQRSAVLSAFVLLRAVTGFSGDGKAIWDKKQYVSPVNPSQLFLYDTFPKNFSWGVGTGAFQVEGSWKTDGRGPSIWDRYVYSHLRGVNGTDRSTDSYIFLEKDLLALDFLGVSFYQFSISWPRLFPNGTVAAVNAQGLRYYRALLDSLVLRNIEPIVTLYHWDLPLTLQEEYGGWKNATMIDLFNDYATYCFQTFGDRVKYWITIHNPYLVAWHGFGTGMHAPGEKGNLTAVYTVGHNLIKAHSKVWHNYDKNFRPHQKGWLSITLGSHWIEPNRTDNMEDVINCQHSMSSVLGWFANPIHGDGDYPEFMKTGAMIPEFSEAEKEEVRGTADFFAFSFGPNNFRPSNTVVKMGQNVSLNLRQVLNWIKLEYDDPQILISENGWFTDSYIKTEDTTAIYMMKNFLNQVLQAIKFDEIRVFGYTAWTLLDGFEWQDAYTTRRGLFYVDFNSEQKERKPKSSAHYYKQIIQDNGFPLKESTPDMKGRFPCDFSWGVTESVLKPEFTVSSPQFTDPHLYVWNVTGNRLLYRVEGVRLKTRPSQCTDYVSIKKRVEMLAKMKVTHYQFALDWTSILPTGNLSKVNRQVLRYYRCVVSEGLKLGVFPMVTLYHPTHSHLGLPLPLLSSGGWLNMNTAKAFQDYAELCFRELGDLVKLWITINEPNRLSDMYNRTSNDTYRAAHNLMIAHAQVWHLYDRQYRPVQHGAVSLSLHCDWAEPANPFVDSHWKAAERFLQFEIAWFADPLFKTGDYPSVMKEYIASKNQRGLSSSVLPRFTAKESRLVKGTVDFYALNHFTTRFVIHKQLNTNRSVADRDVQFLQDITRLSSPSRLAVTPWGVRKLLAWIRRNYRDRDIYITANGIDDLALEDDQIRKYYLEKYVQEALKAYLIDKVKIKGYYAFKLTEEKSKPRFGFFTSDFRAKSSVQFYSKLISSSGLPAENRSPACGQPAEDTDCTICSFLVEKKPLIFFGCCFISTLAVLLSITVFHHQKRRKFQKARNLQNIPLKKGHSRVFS

EC50 (pM), ELK luciferase assay in L6 cells: 38.3 pM
Emax (fold potentiation), ELK luciferase assay in L6 cells: 1.85 fold potentiation
B1: FGF19 variant M70 (ligand)
chain: MRDSSPLVHYGWGDPIRLRHLYTSGPHGLSSCFLRIRADGVVDCARGQSAHSLLEIKAVALRTVAIKGVHSVRYLCMGADGKMQGLLQYSEEDCAFEEEIRPDGYNVYRSEKHRLPVSLSSAKQRQLYKNRGFLPLSHFLPMLPMVPEEPEDLRGHLESDMFSSPLETDSMDPFGLVTGLEAVRSPSFEK

Source: US20190307847A1 (NGM BIOPHARMACEUTICALS, published 2019)
